The target in series [1] is UbcH5B-GSlinker-ccRING3 fusion protein (UniProt Q86YT6). Kind of series: crystal structure.
The series “SEC-MALS” concerns the molecule itself. Kind of series: SEC-MALS.
The series “crystal structure” deals with the molecule itself. Kind of series: crystal structure.

“UbcH5B-GSlinker-ccRING3 fusion protein (from UniProt Q86YT6 936-1006)” came in with a stoichiometry N in series [1] of 2.

B1: ANK-RING1-3 of hMIB1 (residues 417-1006) (domain or fragment)
chain: QLLKKLFETQESGDLNEELVKAAANGDVAKVEDLLKRPDVDVNGQCAGHTAMQAASQNGHVDILKLLLKQNVDVEAEDKDGDRAVHHAAFGDEGAVIEVLHRGSADLNARNKRRQTPLHIAVNKGHLQVVKTLLDFGCHPSLQDSEGDTPLHDAISKKRDDILAVLLEAGADVTITNNNGFNALHHAALRGNPSAMRVLLSKLPRPWIVDEKKDDGYTALHLAALNNHVEVAELLVHQGNANLDIQNVNQQTALHLAVERQHTQIVRLLVRAGAKLDIQDKDGDTPLHEALRHHTLSQLRQLQDMQDVGKVDAAWEPSKNTLIMGLGTQGAEKKSAASIACFLAANGADLSIRNKKGQSPLDLCPDPNLCKALAKCHKEKVSGQVGSRSPSMISNDSETLEECMVCSDMKRDTLFGPCGHIATCSLCSPRVKKCLICKEQVQSRTKIEECVVCSDKKAAVLFQPCGHMCACENCANLMKKCVQCRAVVERRVPFIMCCGGKSSEDATDDISSGNIPVLQKDKDNTNVNADVQKLQQQLQDIKEQTMCPVCLDRLKNMIFLCGHGTCQLCGDRMSECPICRKAIERRILLY
For the molecule B1, in the series “SEC-MALS”, the “stoichiometry N” value turned out to be 2.

B2: ccRING3 region of human MIB1 (third RING domain and adjacent coiled coil region, residues 936-1006) (domain or fragment)
chain: KDKDNTNVNADVQKLQQQLQDIKEQTMCPVCLDRLKNMIFLCGHGTCQLCGDRMSECPICRKAIERRILLY
On to B2, for which the “stoichiometry N” value in “crystal structure” came to 2.

Values taken from PMC10925295 (bioRxiv, 2024).
